Measured values from patent US6432922.
Values joined by “and” are separate entries in the source; they are usually repeats but may differ in a detail not shown here. Identical values can stand only once.

Key:
Test in all cases: cell-based or functional assay
[1] = target: Human rt-PA (Activase), obtained from Genentech Inc. (human) (UniProt P00750)
[2] = target: Urokinase (Abbokinase), manufactured by Abbott Laboratories (UniProt P00749)
[3] = target: Purified human plasmin, obtained from Enzyme Research Laboratories, Inc. (human) (UniProt P00747)
Chain of Purified human plasmin, obtained from Enzyme Research Laboratories, Inc. (human) (P00747 97-810 limits assumed): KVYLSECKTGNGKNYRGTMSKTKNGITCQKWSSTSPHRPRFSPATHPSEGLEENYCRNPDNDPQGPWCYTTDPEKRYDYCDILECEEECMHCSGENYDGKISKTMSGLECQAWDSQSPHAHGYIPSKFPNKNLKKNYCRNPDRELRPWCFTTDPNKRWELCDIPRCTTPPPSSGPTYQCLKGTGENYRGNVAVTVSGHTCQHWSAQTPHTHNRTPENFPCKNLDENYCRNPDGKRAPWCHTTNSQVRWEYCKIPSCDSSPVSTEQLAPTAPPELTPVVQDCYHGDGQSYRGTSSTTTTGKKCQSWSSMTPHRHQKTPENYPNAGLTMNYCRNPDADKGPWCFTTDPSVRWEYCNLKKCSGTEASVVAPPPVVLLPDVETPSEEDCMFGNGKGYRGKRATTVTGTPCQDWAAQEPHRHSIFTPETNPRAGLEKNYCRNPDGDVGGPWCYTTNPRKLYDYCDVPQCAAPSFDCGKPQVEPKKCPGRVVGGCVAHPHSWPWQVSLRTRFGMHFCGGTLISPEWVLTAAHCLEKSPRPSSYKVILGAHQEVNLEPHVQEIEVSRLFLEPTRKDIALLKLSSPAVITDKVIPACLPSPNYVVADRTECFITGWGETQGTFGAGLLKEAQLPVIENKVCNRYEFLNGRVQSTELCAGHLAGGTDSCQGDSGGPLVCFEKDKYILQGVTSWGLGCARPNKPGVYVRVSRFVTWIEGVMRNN

Chain of Human rt-PA (Activase), obtained from Genentech Inc. (human) (P00750 36-562 limits assumed): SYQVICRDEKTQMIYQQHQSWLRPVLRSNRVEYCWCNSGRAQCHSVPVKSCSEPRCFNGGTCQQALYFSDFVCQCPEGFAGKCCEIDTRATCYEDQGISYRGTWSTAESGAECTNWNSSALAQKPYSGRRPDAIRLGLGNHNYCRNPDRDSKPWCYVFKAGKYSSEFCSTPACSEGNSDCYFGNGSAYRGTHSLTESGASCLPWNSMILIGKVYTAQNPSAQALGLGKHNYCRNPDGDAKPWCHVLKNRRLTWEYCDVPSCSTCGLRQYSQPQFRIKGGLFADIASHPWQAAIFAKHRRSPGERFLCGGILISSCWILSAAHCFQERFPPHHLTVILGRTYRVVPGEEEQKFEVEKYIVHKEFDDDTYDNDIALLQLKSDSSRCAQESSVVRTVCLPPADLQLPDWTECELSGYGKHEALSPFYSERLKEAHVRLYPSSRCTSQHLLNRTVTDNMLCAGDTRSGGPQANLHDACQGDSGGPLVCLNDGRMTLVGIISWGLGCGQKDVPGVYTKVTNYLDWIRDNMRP

Row | Substance | IC50 [1] [nM] | IC50 [2] | IC50 [3]
1 | benzyloxycarbonyl-D-seryl-L-allylglycyl-argininal (peptide) | > 2500 | > 100 nM and < 250 nM | > 250 nM and < 2500 nM
2 | benzenesulfonyl-D-seryl-azetidyl-argininal, trifluoroacetate salt (peptide) |  | < 100 nM | > 250 nM and < 2500 nM
3 | benzyloxycarbonyl-D-seryl-L-3,4-dehydroprolyl-argininal (peptide) | > 2500 | < 100 nM | > 100 nM and < 250 nM
4 | benzyloxycarbonyl-D-seryl-2-norvalyl-argininal (peptide) | > 2500 | > 100 nM and < 250 nM | 
5 | benzyloxycarbonyl-D-seryl-L-β-cyanoalanine-argininal (peptide) | > 2500 | < 100 nM | > 250 nM and < 2500 nM
6 | benzyloxycarbonyl-D-seryl-L-azetidine-2-carbonyl-argininal (peptide) | > 2500 | < 100 nM | > 250 nM and < 2500 nM

Results, then the substance that gave them:

Row | IC50 [1] [nM] | IC50 [2] | IC50 [3] | Substance
7 | > 2500 | > 100 nM and < 250 nM |  | benzyloxycarbonyl-D-seryl-pipecolyl-argininal (peptide)
8 | > 2500 | < 100 nM |  | benzyloxycarbonyl-D-seryl-2-aminobutanoyl-argininal (peptide)
9 | > 2500 | < 100 nM | > 250 nM and < 2500 nM | benzyloxycarbonyl-D-seryl-L-propargylglycyl-argininal (peptide)
